Data on one molecule can be found in US20090175847A1.

The target of experiment [1] is Aβ(1-42) globulomer (human) (UniProt P05067). Briefly: dot blot densitometry; antigen: Aβ(1-42) globulomer.
The target in experiment [2] is Aβ(20-42) globulomer (human). The experiment can be described thus: dot blot densitometry; antigen: Aβ(20-42) globulomer (the reference of the ratio).
Experiment [3] concerns the target Aβ(1-42) fibrils (human) (UniProt P05067). The experiment can be described thus: dot blot densitometry; antigen: Aβ(1-42) fibril; the dot is read as a thousands separator.
Experiment [4] deals with Aβ(1-40) monomer (human). The experiment can be described thus: dot blot densitometry; antigen: Aβ(1-40) monomer, 0.1% NH4OH; the dot is read as a thousands separator.
Experiment [5] deals with Aβ(1-42) monomer (human). The experiment can be described thus: dot blot densitometry; antigen: Aβ(1-42) monomer, 0.1% NH4OH; the dot is read as a thousands separator (no dot in column 1 of panel A).
Chain of Aβ(1-42) monomer (human) (peptide, as listed by the source): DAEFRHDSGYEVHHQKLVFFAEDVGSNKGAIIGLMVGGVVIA

Chain of Aβ(1-40) monomer (human) (peptide, as listed by the source): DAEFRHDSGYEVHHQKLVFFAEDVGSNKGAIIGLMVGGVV
Chain of Aβ(20-42) globulomer (human) (peptide, as listed by the source): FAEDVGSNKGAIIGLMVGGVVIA

B1: humanized antibody 5F7hum8 (antibody, IgG1, V domains shown)
VH: EVQLVQSGAEVKKPGASVKVSCKASGYTFTTFYIHWVRQAPGQGLEWIGMIGPGSGNTYYNEMFKDKATLTVDTSTSTAYMELSSLRSEDTAVYYCARAKSARAAWFAYWGQGTLVTVSS
VL: DIVMTQSPLSLPVTPGEPASISCRSSQSVVQSNGNTYLEWYLQKPGQSPQLLIYKVSNRFSGVPDRFSGSGSGTDFTLKISRVEAEDVGVYYCFQGSHVPPTFGGGTKVEIKR
Regarding B1, the relation between recognition of Aβ(20-42) globulomer and the respective Aβ form in experiment [1] was 17; in experiment [2] it was 1; in experiment [3], more than 10000; in experiment [4] it was more than 10000; in experiment [5], 10400.
